Earlier results on 4 substances are cited in PMC7295915.

Among the targets are CD48 (Homo sapiens) (UniProt P09326); CD40L (Homo sapiens) (UniProt P29965); CD80 (Homo sapiens) (UniProt P33681); ICAM-1 (Homo sapiens) (UniProt P05362).

Sequence of ICAM-1 (Homo sapiens) (P05362 28-480): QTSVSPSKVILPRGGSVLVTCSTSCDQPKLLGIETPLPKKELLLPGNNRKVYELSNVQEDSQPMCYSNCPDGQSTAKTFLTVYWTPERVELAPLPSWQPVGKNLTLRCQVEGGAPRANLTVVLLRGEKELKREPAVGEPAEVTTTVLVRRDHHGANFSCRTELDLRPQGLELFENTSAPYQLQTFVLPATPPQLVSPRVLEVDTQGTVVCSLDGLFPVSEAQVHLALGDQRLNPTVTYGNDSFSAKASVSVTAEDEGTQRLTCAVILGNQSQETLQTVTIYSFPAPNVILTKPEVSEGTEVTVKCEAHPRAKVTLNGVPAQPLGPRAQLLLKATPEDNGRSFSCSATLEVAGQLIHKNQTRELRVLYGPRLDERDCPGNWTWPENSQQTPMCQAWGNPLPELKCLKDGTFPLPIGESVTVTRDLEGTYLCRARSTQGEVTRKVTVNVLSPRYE
Sequence of CD2 (P06729 25-209): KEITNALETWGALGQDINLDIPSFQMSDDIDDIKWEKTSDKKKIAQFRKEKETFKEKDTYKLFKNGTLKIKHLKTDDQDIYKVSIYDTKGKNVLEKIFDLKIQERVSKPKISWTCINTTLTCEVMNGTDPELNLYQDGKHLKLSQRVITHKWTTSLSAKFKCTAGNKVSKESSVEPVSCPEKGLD
Sequence of CD40 (P25942 21-277): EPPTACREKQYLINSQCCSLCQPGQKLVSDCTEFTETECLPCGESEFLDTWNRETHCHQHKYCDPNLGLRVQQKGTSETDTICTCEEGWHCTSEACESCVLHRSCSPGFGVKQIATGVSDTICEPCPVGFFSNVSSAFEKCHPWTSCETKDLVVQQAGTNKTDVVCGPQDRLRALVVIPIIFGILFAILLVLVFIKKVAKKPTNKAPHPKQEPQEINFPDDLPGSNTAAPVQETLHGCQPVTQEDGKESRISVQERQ
Sequence of CD80 (Homo sapiens) (P33681 35-242): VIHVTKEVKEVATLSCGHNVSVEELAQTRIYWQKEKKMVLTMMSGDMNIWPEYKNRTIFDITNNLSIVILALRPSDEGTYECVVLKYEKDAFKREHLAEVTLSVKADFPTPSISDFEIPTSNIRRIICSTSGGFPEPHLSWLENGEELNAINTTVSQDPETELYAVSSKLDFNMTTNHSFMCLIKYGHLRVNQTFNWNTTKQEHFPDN
Sequence of CD48 (Homo sapiens) (P09326 27-220): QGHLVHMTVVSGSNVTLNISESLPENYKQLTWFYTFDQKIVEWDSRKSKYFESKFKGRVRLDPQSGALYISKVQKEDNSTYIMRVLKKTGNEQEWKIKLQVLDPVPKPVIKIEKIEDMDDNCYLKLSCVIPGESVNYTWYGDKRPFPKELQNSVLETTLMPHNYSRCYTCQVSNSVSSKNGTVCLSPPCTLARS
Sequence of CD40L (Homo sapiens) (P29965 113-261): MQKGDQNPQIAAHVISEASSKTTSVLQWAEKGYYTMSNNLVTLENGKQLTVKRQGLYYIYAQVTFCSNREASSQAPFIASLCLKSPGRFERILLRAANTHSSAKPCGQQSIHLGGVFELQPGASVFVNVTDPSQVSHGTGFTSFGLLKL
Sequence of LFA-1 (P20701 26-1090): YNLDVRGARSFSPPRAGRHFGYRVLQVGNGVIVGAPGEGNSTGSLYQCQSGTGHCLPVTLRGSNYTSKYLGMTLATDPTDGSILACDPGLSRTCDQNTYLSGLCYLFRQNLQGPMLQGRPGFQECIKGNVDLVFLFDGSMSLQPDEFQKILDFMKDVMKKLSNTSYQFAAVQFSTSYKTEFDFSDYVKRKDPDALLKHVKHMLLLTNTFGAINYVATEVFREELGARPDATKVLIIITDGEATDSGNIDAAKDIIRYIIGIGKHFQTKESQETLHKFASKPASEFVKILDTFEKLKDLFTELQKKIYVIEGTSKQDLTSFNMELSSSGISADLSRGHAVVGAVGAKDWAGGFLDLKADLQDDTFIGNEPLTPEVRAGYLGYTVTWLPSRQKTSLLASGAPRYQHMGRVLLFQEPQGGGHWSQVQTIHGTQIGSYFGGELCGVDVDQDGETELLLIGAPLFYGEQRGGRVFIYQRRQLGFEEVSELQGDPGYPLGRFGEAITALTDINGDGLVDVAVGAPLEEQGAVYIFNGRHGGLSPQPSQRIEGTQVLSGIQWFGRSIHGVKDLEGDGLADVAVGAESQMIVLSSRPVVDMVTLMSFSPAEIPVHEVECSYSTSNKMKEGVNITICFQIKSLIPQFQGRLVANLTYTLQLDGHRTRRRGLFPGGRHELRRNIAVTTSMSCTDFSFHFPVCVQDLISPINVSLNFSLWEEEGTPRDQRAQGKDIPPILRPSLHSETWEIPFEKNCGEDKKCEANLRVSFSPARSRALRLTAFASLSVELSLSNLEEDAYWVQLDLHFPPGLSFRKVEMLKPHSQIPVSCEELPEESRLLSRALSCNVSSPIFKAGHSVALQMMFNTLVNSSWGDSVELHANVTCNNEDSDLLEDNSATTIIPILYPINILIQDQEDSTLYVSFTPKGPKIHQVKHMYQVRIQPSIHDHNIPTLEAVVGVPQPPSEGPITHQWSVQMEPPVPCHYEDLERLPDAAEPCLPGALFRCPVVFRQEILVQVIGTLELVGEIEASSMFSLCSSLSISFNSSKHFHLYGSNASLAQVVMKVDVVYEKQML
Sequence of LFA-1 (P05107 23-700, further chain): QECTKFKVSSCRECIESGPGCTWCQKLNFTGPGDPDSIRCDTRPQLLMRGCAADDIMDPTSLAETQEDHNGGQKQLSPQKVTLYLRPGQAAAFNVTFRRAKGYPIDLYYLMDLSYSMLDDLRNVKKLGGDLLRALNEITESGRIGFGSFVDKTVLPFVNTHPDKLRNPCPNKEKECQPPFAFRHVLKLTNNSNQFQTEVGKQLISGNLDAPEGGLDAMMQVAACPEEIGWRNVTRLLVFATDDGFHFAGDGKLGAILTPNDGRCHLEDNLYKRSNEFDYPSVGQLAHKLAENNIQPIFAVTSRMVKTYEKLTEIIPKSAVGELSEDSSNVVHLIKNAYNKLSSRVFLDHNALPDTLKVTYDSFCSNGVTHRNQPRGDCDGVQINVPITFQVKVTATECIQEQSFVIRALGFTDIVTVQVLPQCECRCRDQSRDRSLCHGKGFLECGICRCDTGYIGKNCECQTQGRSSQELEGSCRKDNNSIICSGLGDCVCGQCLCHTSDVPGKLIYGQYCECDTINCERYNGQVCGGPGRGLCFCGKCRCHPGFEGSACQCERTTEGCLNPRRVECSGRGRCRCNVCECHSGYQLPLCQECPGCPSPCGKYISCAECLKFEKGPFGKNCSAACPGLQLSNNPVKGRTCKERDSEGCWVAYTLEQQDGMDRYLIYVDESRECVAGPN

Consider CD2 (from UniProt P06729), for which the Kd in the data set with CD48 (Homo sapiens) was 100000 nM. As to CD40 (from UniProt P25942), the Kd with CD40L (Homo sapiens) is 200 nM.

Consider CD28 (from UniProt P10747), for which the Kd with CD80 (Homo sapiens) is 4000 nM. With LFA-1 (from UniProt P20701), the Kd with ICAM-1 (Homo sapiens) is 500 nM.

As a reminder, the Kd is a measure of binding affinity in units of concentration.
